# Test results from patent US20250215467A1, “L-THREONINE TRANSALDOLASES AND USES THEREOF” (University of Delaware, priority 2022, published 2025).
# Experiments:
# [1] = TTA-ADH coupled assay at different L-Thr concentrations (apparent L-Thr KM and kcat); type: biochemical
# Description: (§1) High-throughput screening of purified TTAs was performed with a TTA-ADH coupled assay using purified TTA and commercially available alcohol dehydrogenase from S. cerevisiae purchased from MilliporeSigma. Aldehyde stocks were prepared in 50-100 mM solutions in DMSO or acetonitrile. Reaction mixtures were prepared in a 96-well plate with 100 μL of 100 mM phosphate buffer pH 7.5, 0.5 mM NADH, 0.4 mM PLP, 15 mM MgCl2, and 100 mM L-Thr with the addition of 0.25 mM to 1 mM aldehyde depending on the background absorbance at 340 nm (Table 4), 10 U ScADH, and 0.25 μM purified TTA unless otherwise specified. Reactions were initiated with the addition of enzyme. […] The following controls were included for every assay: reaction mixture without aldehyde, without TTA, and without enzyme (TTA or ADH). Rates were calculated by identifying the linear region at the beginning of the kinetic run and converting the depletion in absorbance to the depletion of mM NADH using an NADH standard curve.
# We next sought to determine the affinity of these enzymes for L-Thr, which we obtained by performing the TTA-ADH coupled assay at different L-Thr concentrations (FIG. 16b). […] Two differences between our assays were the substrate, phenylacetaldehyde (14) instead of 4-nitrophenylacetylaldehyde (15), and the assay format, ADH coupling rather than a discontinuous HPLC assay. Because a live cellular environment would also contain alcohol dehydrogenases for reduction of acetaldehyde, it is possible that the KM values that we are measuring using the TTA-ADH coupled assay may be more realistic for our envisioned applications.
# [2] = TTA-ADH coupled assay, screen of purified TTAs on 2-nitro-benzaldehyde; type: biochemical; conditions: substrate 3, TTA-ADH coupled assay
# Description: as §1
# Once purified, we identified the putative TTAs with high activity and further characterized them for their L-Thr affinity and substrate scope. We first screened each purified enzyme using the TTA-ADH coupled assay with 2-nitro-benzaldehyde, 3, the best performing substrate from the screen of ObiH that was not a substrate of the ScADH. […] With this evidence as well as well-aligned, predicted AlphaFold structures, we assumed the impact of the SUMO tag would be minimal for all TTAs screened and moved forward with additional enzyme characterization.
# [3] = In vitro assay over 20 h with HPLC analysis (amino acid substrate specificity, diastereomeric excess); type: biochemical; conditions: 3 as aldehyde substrate
# Description: Metabolites of interest were quantified via high-performance liquid chromatography (HPLC) using an Agilent 1260 Infinity model equipped with a Zorbax Eclipse Plus-C18 column. To quantify aldehyde and β-OH-nsAAs, an initial mobile phase of solvent A/B=95/5 was used (solvent A, water+0.1% TFA; solvent B, acetonitrile+0.1% TFA) and maintained for 5 min. A gradient elution was performed (A/B) as follows: gradient from 95/5 to 50/50 for 5-12 min, gradient from 50/50 to 0/100 for 12-13 min, and gradient from 0/100 to 95/5 for 13-14 min. A flow rate of 1 mL min-1 was maintained, and absorption was monitored at 210, 250 and 280 nm.
# We performed an in vitro assay over 20 h using 3 as the aldehyde substrate and either L-Thr, Glycine (Gly), or L-Serine (L-Ser) as the candidate amino acid. Since the TTA-ADH coupled assay is specific to L-Thr, we analyzed TTA activity via HPLC with a chemically synthesized β-OH-nsAA standard for the assumed product from 3.
# [4] = tested on: E. coli RARE strain; experiment: CAR-TTA coupled production in aerobically growing E. coli RARE; type: cell-based, Escherichia coli; conditions: coupled to NiCAR, 2 mM acid, HPLC after 20 h
# Description: For the CAR-TTA coupled assay, the strains transformed with a plasmid expressing a TTA and a second plasmid expressing a CAR were grown under identical conditions with the addition of 34 μg/mL chloramphenicol (Cm) to maintain the additional plasmid. Further, 0.2 nM aTc and 1 mM IPTG were added to induce protein expression and 2 mM aldehyde, or acid was added at the time of induction. Following induction, the cultures were grown for 20 h at 30° C. while shaking at 1000 RPM with product concentrations measured via supernatant sampling and submission to HPLC.
# Finally, to partially address the toxicity of supplemented aldehydes in fermentative contexts, we investigated whether we could couple a TTA to a carboxylic acid reductase (CAR) to create a steady and low-level supply of aldehydes biosynthesized from carboxylic acid precursors. […]
# With the promise of the CAR-TTA coupling, we wanted to investigate the generalizability of this pathway to produce a β-OH-nsAA that has a bio-orthogonal conjugation handle. […] Finally, given the potential to produce novel peptide or protein products in cells, we wanted to confirm the activity of this cascade in growing cells, which was successful for all CAR-TTA pairings with MavCAR producing the highest titer determined by product peak area after 20 h (FIG. 20d). […]
molecule,measurement,setting,value
"PbTTA: L-threonine transaldolase, SEQ ID NO: 16, Parachlamydiales bacterium, MBN2478762.1 (protein, listed as Parachlamydiales bacterium) METSLKDFETILHLINKEEIDSNDTIHMTANENIMSKLSKHYLKSTLSYRYHVGMFDDQKNLTVSRSCLIKNSLMLRCLSPIFLLEQQAREYVKKMFFAEYADFRPLSGMHTVFCILSTLTKPNDRVYVFTTESVGHAATVSLLKSLGRKVSFIPFCEKKLDIDLEKLSKQILIEKPNAILFDFGTPFYPLPIREIREIVGNDVKMIYDASHVLGLIAGGQFQNPLLEGCDVLIGNTHKTFPGPQKGMILYKNKSLGKEIATEIFKSAISAQHTHHAIALYVTIIEMYIHGKEYANQIIKNNHALSQALINEGFKIFKRKNQFSLSHMIAITGDFPIDHHVACADLHNSNISTNSRILYDFPAVRIGVQEVTRKGMKEKDMVQLAKFFKEIILDRKNISSKIKEFNNKFNSIEYSLDEIYEKLF",Km,"[1]; apparent, phenylacetaldehyde (14) as aldehyde, ADH coupling, non-linear regression",10.9 mM
same,L-Thr kcat compared with ObiH,[1]; phenylacetaldehyde as the aldehyde substrate,higher measured L-Thr kcat values than ObiH
same,activity on 2-nitro-benzaldehyde relative to ObiH,[2],comparable to or better than ObiH
same,β-OH-nsAA formation using L-Ser or Gly,[3],no β-OH-nsAA formation
same,β-OH-nsAA production from 4-formyl benzoic acid,[4],observed a peak corresponding to the β-OH-nsAA
